Measurements reported in article PMC10468207.

How the values were obtained:
CaMKII^F394BzF (human) = CaMKII^F394BzF (human) (UniProt Q9UQM7); assay: SEC; Superose 6 10/300 increase column; SEC buffer 25 mM Tris pH 8, 250 mM NaCl, 1% glycerol, 1 mM TCEP; assembly of subunits into the holoenzyme
[1] = biological target: kinase-dead CaMKII (K42R and D135N double mutant) with C-terminal AviTag (human) (UniProt Q9UQM7); assay: mass photometry; 400 nM CaMKII, activating conditions (8 µM CaMKII incubated with 1.5 µM Ca2+:CaM, 1 mM ATP, 2 mM MgCl2 for 5 min at room temperature, then diluted); 25 mM Tris pH 8, 150 mM KCl, 1 mM TCEP
[2] = biological target: kinase-dead CaMKII (K42R and D135N double mutant) with C-terminal AviTag (human) (UniProt Q9UQM7); assay: SEC; Superose 6 10/300 increase column; SEC buffer 25 mM Tris pH 8, 250 mM NaCl, 1% glycerol, 1 mM TCEP; assembly of subunits into the holoenzyme
[3] = biological target: kinase-dead CaMKII (K42R and D135N double mutant) with C-terminal AviTag (human) (UniProt Q9UQM7); assay: mass photometry; 400 nM CaMKII, basal conditions; 25 mM Tris pH 8, 150 mM KCl, 1 mM TCEP; Refeyn One MP

| stoichiometry N (CaMKII^F394BzF (human)) | percent in the tetramer peak [1] [%] | stoichiometry N [1] | stoichiometry N [2] | stoichiometry N [3] | Substance |
| --- | --- | --- | --- | --- | --- |
| 12 | – | – | – | – | CaMKII^F394BzF (from UniProt Q9UQM7 6-478) (enzyme) |
| – | 12 | 4 | 12 | 10 | kinase-dead CaMKII (K42R and D135N double mutant) with C-terminal AviTag (from UniProt Q9UQM7 6-478) (enzyme) |
